Test results reported in patent publication US20120028271A1.
One block for each molecule: values may come before it.

Assays:
[1] = molecular target: proteasome of mammalian cell and human tissue extracts (detected through Rpt1, Rpn2, Rpn1 and 20S alpha subunits and chymotryptic activity) (human); experiment: GST pull-down from cell extracts, co-purified chymotryptic activity standardized to UbL-A, 14 measurements
[2] = molecular target: proteasome of mammalian cell and human tissue extracts (detected through Rpt1, Rpn2, Rpn1 and 20S alpha subunits and chymotryptic activity) (human); experiment: GST pull-down from cell extracts, co-purified chymotryptic activity, 5 measurements

proteasome of mammalian cell and human tissue extracts (detected through Rpt1, Rpn2, Rpn1 and 20S alpha subunits and chymotryptic activity) (human), sequence (P35998 2-433, form in doubt, chain 1 of 2): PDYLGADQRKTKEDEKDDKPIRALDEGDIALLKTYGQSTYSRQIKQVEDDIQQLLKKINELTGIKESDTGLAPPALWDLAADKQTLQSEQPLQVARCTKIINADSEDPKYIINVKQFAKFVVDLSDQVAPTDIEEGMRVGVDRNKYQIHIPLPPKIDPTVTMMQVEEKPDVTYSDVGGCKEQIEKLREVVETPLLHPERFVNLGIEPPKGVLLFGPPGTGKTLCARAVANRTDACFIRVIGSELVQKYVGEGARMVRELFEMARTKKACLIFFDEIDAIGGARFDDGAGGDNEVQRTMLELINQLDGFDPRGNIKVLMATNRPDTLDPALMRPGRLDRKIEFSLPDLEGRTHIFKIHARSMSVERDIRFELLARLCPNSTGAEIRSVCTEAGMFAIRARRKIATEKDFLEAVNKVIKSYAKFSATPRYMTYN
proteasome of mammalian cell and human tissue extracts (detected through Rpt1, Rpn2, Rpn1 and 20S alpha subunits and chymotryptic activity) (human), sequence (B8ZZH9 whole entry, form in doubt, chain 2 of 2, further chain): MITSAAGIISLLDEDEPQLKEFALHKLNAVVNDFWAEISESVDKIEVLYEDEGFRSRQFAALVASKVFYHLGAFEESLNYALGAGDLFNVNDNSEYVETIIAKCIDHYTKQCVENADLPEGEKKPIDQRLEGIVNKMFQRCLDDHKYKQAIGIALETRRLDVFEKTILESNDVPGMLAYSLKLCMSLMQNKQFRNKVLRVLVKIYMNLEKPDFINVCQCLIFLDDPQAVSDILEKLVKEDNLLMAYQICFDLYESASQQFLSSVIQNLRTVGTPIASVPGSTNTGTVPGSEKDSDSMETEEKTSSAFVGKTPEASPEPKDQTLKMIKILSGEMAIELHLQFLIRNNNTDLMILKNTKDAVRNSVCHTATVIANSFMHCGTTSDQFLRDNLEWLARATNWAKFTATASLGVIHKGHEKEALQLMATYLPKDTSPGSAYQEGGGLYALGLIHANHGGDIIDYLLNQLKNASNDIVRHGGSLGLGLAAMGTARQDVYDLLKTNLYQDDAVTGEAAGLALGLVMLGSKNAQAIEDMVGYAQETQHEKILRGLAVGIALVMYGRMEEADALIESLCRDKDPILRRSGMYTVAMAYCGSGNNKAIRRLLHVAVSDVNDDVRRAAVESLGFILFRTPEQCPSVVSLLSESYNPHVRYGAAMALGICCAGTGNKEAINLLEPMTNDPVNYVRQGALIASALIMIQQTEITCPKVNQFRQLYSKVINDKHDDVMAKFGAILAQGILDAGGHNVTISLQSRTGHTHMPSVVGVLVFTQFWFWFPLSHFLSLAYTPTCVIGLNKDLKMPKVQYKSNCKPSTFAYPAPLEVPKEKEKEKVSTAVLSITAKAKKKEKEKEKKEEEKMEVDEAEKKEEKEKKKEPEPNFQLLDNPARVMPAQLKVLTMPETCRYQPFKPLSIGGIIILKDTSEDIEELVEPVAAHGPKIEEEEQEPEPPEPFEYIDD

fold proteasome purified (chymotryptic activity) relative to UbL-A [1]: 2.94 fold
Molecule: GST-UbL-B (UbL domain of human hHR23B, residues 1-78) (from UniProt P54727 1-78)

fold increase of proteasome interaction / associated chymotryptic activity relative to UbL-A^1-79 [2]: 2.5 fold
B1: GST-UbL-A^1-78 (UbL domain of hHR23A ending in Val-Val-Val-Met-Val-Thr-Lys) (protein, not shown: a dimerising Fc or GST)
chain: MAVTITLKTLQQQTFKIRMEPDETVKVLKEKIEAEKGRDAFPVAGQKLIYAGKILSDDVPIRDYRIDEKNFVVVMVTK
